Oligomer mass as multiple of the monomer mass (times monomer size) data for one substance are collected here from patent publication US20230092081A1.

For this assay, the target named is S. ruber SSB cdel 111 C-terminal deletion mutant lacking the C-terminal 111 residues of the wildtype SSB (Salinibacter ruber). Put plainly: size exclusion chromatography, 150 mM NaCl, self-association.

As for “S. ruber SSB cdel 111 C-terminal deletion mutant lacking the C-terminal 111 residues of the wildtype SSB”, the oligomer mass as multiple of the monomer mass (times monomer size) worked out at 3.8.
